According to the supplement of paper PMC10724198:
± gives the standard deviation of the averaged measurements.
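Also: PSI is a weighted mean of sequencing reads over stability bins, variants kept only with over 10 reads, mCherry proximal and sfGFP distal, peptide attached via GGGS linker.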

The sequences below were run on Saccharomyces cerevisiae (assay: protein stability index of tFT-peptide fusion (C-terminal peptide) (PSI (0-1 scale)); higher = more stable (slower turnover)). Conditions: genetic background: wild type; temperature: 30 C.
PPSPPHPIRPPA was tested, and the protein stability index was 0.713 ± 0.025. With PPSPPIPPPPAP the protein stability index was 0.732 ± 0.053. PPSPPPGTCPPD gave a protein stability index of 0.617 ± 0.064. With PPSPPPPAPPRA the protein stability index was 0.713 ± 0.023. PPSPPPPLSLSP was tested, and the protein stability index was 0.6853 ± 0.0033. For PPSPPPPPPPPL, the protein stability index was 0.7 ± 0.032. Work on PPSPSNPNPLRP yielded a protein stability index of 0.726 ± 0.019. PPSPSSLLFLLS showed a protein stability index of 0.7043 ± 0.0028. PPSPTPPALPAP gave a protein stability index of 0.688 ± 0.018. PPSRPLPFLLPH showed a protein stability index of 0.696 ± 0.0091. In the case of PPSSDRPSIILP, the protein stability index is reported as 0.691 ± 0.081. PPSSPPSVLPPV showed a protein stability index of 0.666 ± 0.021. For PPSSTAALPPLP, the protein stability index was 0.609 ± 0.066. PPSVTLSEMTTG showed a protein stability index of 0.642 ± 0.025. PPSWASLRLPPT showed a protein stability index of 0.708 ± 0.072. Work on PPTFPPLLSPPP yielded a protein stability index of 0.661 ± 0.025. PPTIPLRTLPTS showed a protein stability index of 0.703 ± 0.018. PPTPKHTPHDTT gave a protein stability index of 0.694 ± 0.031. PPTPLAASPRPS gave a protein stability index of 0.722 ± 0.12. Work on PPTPPSLPPLSP yielded a protein stability index of 0.665 ± 0.086. For PPTPPTSHPSPR, the protein stability index was 0.696 ± 0.027. Work on PPTPTPPHPPPP yielded a protein stability index of 0.611 ± 0.015. Sequence PPVKQKEKGTAT has a protein stability index of 0.701 ± 0.021. Work on PPVPPPPRLPRP yielded a protein stability index of 0.727 ± 0.019. PPWPPLVQPVSL was tested, and the protein stability index was 0.708 ± 0.066. With PPYRVVLPLFVP the protein stability index was 0.508 ± 0.033. PPYSQPSSTPPH was tested, and the protein stability index was 0.706 ± 0.092. For PQDRGICQIIES, the protein stability index was 0.632 ± 0.017. Sequence PQDYITTCQHPT has a protein stability index of 0.651 ± 0.079. Sequence PQFRHFWALSTT has a protein stability index of 0.707 ± 0.015. For PQPLFLPSPLSR, the protein stability index was 0.702 ± 0.06. Sequence PQPLYAPFPPPL has a protein stability index of 0.789 ± 0.096. For PQPPPPPPLSVS, the protein stability index was 0.673 ± 0.0087. Sequence PQPPRPARLCFP has a protein stability index of 0.705 ± 0.028. In the case of PQRTPPRPNKPP, the protein stability index is reported as 0.556 ± 0.013. For PQSCNILRGLES, the protein stability index was 0.708 ± 0.056. PRACPSSPASSL was tested, and the protein stability index was 0.722 ± 0.024. PRALPSPPPPPP gave a protein stability index of 0.661 ± 0.13. PRAPHATGYNRR gave a protein stability index of 0.7016 ± 0.0069. With PRAPPLPPSPSP the protein stability index was 0.668 ± 0.011. With PRARHSVPNIQS the protein stability index was 0.694 ± 0.042. PRGAVGSRPAGR gave a protein stability index of 0.677 ± 0.034. With PRGTFARSRSTG the protein stability index was 0.7156 ± 0.0027. In the case of PRGYRGNCAYDV, the protein stability index is reported as 0.636 ± 0.083. In the case of PRHPPTHLIPKT, the protein stability index is reported as 0.615 ± 0.034. With PRLAPLTLLPPS the protein stability index was 0.7051 ± 0.0027. For PRLPPPPHPSRP, the protein stability index was 0.698 ± 0.031. PRNTPPRRAPTR was tested, and the protein stability index was 0.6485 ± 0.0031. Sequence PRPAPGGSPALT has a protein stability index of 0.689 ± 0.083. For PRPAPLPAPPPS, the protein stability index was 0.679 ± 0.029. For PRPISLFPLPPP, the protein stability index was 0.693 ± 0.057. With PRPLPPPPAFLP the protein stability index was 0.766 ± 0.08. PRPPAPRTGPPP was tested, and the protein stability index was 0.633 ± 0.011. For PRPPHPPPSSPR, the protein stability index was 0.69 ± 0.096. Work on PRPPPPRIPRPD yielded a protein stability index of 0.7 ± 0.12. PRPPPPSVARVP showed a protein stability index of 0.64711 ± 0.0003. PRPPRWSSPWPV showed a protein stability index of 0.719 ± 0.058. Work on PRPPYTPSPPHQ yielded a protein stability index of 0.774 ± 0.016. PRPRSPLSPLAL was tested, and the protein stability index was 0.676 ± 0.031. PRPRTQPHPGPG gave a protein stability index of 0.711 ± 0.0096. PRQLPVRKVSTG showed a protein stability index of 0.7042 ± 0.0022. Work on PRRHLALLISEG yielded a protein stability index of 0.6868 ± 0.00082. With PRRPAPSPLPTP the protein stability index was 0.718 ± 0.2. PRRPATTSIPTT was tested, and the protein stability index was 0.672 ± 0.038. PRRPLPPSPPRE showed a protein stability index of 0.729 ± 0.022. PRRRLVLDDRPT was tested, and the protein stability index was 0.72823 ± 6.5e-05. PRSPPHLRWTRY was tested, and the protein stability index was 0.686 ± 0.013. Sequence PRSPPLTHVSLH has a protein stability index of 0.697 ± 0.043. PRSPPPPSPPPY gave a protein stability index of 0.583 ± 0.02. For PRSPPSPTLPHP, the protein stability index was 0.609 ± 0.027. For PSAASIFLPFPL, the protein stability index was 0.733 ± 0.048. With PSAGPVVLPTPP the protein stability index was 0.704 ± 0.013. With PSCALAFRSEPH the protein stability index was 0.741 ± 0.018. Sequence PSCDCFLLLAPR has a protein stability index of 0.665 ± 0.055. Sequence PSCPAFPSPPPS has a protein stability index of 0.696 ± 0.014. With PSDTHTPDQPAK the protein stability index was 0.694 ± 0.056. Sequence PSELLPQLPSRW has a protein stability index of 0.702 ± 0.019. PSETPSPLTLCS was tested, and the protein stability index was 0.722 ± 0.037. Work on PSFSPPQVPFPV yielded a protein stability index of 0.721 ± 0.06. PSGFPLRSYLPP was tested, and the protein stability index was 0.707 ± 0.049. PSGPPPSLFPSA gave a protein stability index of 0.661 ± 0.052. In the case of PSHGSRPSPPLR, the protein stability index is reported as 0.676 ± 0.034. In the case of PSHPPPPATPCP, the protein stability index is reported as 0.7108 ± 0.0065. For PSKTTALTGPDP, the protein stability index was 0.737 ± 0.008. In the case of PSLLSSPPPPLL, the protein stability index is reported as 0.737 ± 0.073. For PSLNNTMLKENK, the protein stability index was 0.62 ± 0.061. Work on PSLPPDLPPPPA yielded a protein stability index of 0.744 ± 0.011. With PSLPPPRRPLSP the protein stability index was 0.671 ± 0.017. For PSLPPSPISPPH, the protein stability index was 0.588 ± 0.013. PSLPVPLVPPLS gave a protein stability index of 0.633 ± 0.014. Work on PSLPWSGPPVPC yielded a protein stability index of 0.664 ± 0.013. PSLQPPLHYPPP showed a protein stability index of 0.6448 ± 0.0044. For PSLRPPPLPPLS, the protein stability index was 0.7214 ± 0.0025. With PSPAALLPPPPP the protein stability index was 0.643 ± 0.014. In the case of PSPALPSLSTPL, the protein stability index is reported as 0.669 ± 0.047. With PSPAPPPLPFPR the protein stability index was 0.72 ± 0.038. With PSPAPTPPTPHS the protein stability index was 0.721 ± 0.28. With PSPCRPPHTSAG the protein stability index was 0.646 ± 0.048. Work on PSPFPCVFRFSA yielded a protein stability index of 0.635 ± 0.029. PSPHRFPAPTLP gave a protein stability index of 0.687 ± 0.039. With PSPLPPPVSRPP the protein stability index was 0.691 ± 0.049. Work on PSPLRASPTAVF yielded a protein stability index of 0.62 ± 0.013. PSPPAPFPVCLL gave a protein stability index of 0.617 ± 0.011. Work on PSPPFFLTAASL yielded a protein stability index of 0.668 ± 0.01. Work on PSPPPAPPPHSP yielded a protein stability index of 0.665 ± 0.022. In the case of PSPPPLSSPPSP, the protein stability index is reported as 0.6425 ± 0.003. PSPPPPPALPSH gave a protein stability index of 0.66 ± 0.13. PSPPPPPPPQPS showed a protein stability index of 0.722 ± 0.059. Sequence PSPPPPTVPHPP has a protein stability index of 0.6779 ± 0.00096. PSPPSRFPPCTP was tested, and the protein stability index was 0.76987 ± 0.00013. Work on PSPPTLILPPHP yielded a protein stability index of 0.663 ± 0.0095. For PSPPTPHPPCRS, the protein stability index was 0.746 ± 0.013. For PSPPYLIPHALS, the protein stability index was 0.676 ± 0.041. PSPRPPPSPPLP was tested, and the protein stability index was 0.695 ± 0.037. PSPSAPPPLSPL was tested, and the protein stability index was 0.546 ± 0.052. In the case of PSPSFLVFATSY, the protein stability index is reported as 0.628 ± 0.027. Work on PSPSPPLAPPVT yielded a protein stability index of 0.647 ± 0.038. With PSPSPPRLLPPP the protein stability index was 0.7 ± 0.031. For PSPSPSPPLPPP, the protein stability index was 0.652 ± 0.0077. PSPSRAPPMAPS gave a protein stability index of 0.6982 ± 0.0013. For PSPVLLPPFVSP, the protein stability index was 0.706 ± 0.0089. Work on PSRIRPPTASPP yielded a protein stability index of 0.76 ± 0.061. PSRPLPPPPPPL was tested, and the protein stability index was 0.765 ± 0.14. Work on PSRPPPARSSPP yielded a protein stability index of 0.652 ± 0.0069. With PSRPPRLPPASF the protein stability index was 0.681 ± 0.046. Sequence PSRSLSSPPSSR has a protein stability index of 0.64 ± 0.019. PSSCSPPPSSPS gave a protein stability index of 0.692 ± 0.064. PSSPPLPPPSPP was tested, and the protein stability index was 0.644 ± 0.03. PSSPPSLSPPLP was tested, and the protein stability index was 0.7177 ± 0.0034. Work on PSSPPVLPLHFH yielded a protein stability index of 0.728 ± 0.019. In the case of PSSPSPLRPPSP, the protein stability index is reported as 0.666 ± 0.096. For PSSSDHDTRQKK, the protein stability index was 0.708 ± 0.058. For PSSSFFFLSSYL, the protein stability index was 0.706 ± 0.043. For PSTHPPTLPRPC, the protein stability index was 0.712 ± 0.024. For PSTILLRYRPSV, the protein stability index was 0.825 ± 0.16. Work on PSTLPLRLPRMF yielded a protein stability index of 0.644 ± 0.057. For PSTPFAPPSATY, the protein stability index was 0.685 ± 0.014. Sequence PSWLLFGVHGGW has a protein stability index of 0.71 ± 0.056. PTGQSSVESGAG was tested, and the protein stability index was 0.693 ± 0.088. PTGRGRSAYLVL was tested, and the protein stability index was 0.6875 ± 0.0058. PTHCWSGLSGKG showed a protein stability index of 0.703 ± 0.016. PTHPHLTLTETP showed a protein stability index of 0.687 ± 0.017. With PTIMYIRKTEER the protein stability index was 0.692 ± 0.043. With PTIRKDPLGFLR the protein stability index was 0.707 ± 0.0084. PTKKRQHSDRRK gave a protein stability index of 0.644 ± 0.013. In the case of PTLFSLLLRAFL, the protein stability index is reported as 0.623 ± 0.13. With PTLSPRSPRFAS the protein stability index was 0.755 ± 0.035. For PTNISEKVGAKS, the protein stability index was 0.671 ± 0.02. With PTPHPHTGSLEG the protein stability index was 0.651 ± 0.011. Work on PTPHTTHPQNNT yielded a protein stability index of 0.729 ± 0.0062. For PTPLPRISLTSV, the protein stability index was 0.667 ± 0.025. For PTPPLLPPAPSP, the protein stability index was 0.707 ± 0.048. Sequence PTPPPPPSPFAL has a protein stability index of 0.804 ± 0.15. For PTPPSPTPLPAT, the protein stability index was 0.679 ± 0.043. PTPSDRLPPPSH showed a protein stability index of 0.712 ± 0.0098. In the case of PTPVAHSLSLRI, the protein stability index is reported as 0.637 ± 0.033. PTRFLPVPSLFS gave a protein stability index of 0.679 ± 0.048. PTSSPAPPLFAF showed a protein stability index of 0.67 ± 0.028. PTTAVNLPQGGT was tested, and the protein stability index was 0.68 ± 0.063. In the case of PTVPYRLVLSTV, the protein stability index is reported as 0.511 ± 0.056.
